Among the data in the Human Domainome abundance scans (Beltran et al. 2025) are abundance fitness values, retold here.

First the molecules themselves.
B1: Tripartite motif-containing protein 49C, residues 87 to 133; numbered along this chain, P0CI26 (parent)
chain: SSEEQMCGTHRETKKIFCEVDRSLLCLLCSSSQEHRYHRHRPIEWAA
B2: Tyrosine-protein kinase BTK, residues 215 to 273; numbered along this chain, Q06187 (parent)
chain: ELKKVVALYDYMPMNANDLQLRKGDEYFILEESNLPWWRARDKNGQEGYIPSNYVTEAE

± gives the uncertainty stated by the source.

The first series covers variants of B1. The experiment in a line: abundance fitness (aPCA) (normalised: wild type 0, dead -1); higher = more abundant; growth selection in yeast, the domain comes from the species named. Particulars: Homo sapiens.
S32T: the abundance fitness is -0.278 ± 0.12.
Still for that read-out and setting: the result for S32V reads -0.301 ± 0.11.
Still for that read-out and setting: as for S32C, the figure is -0.414 ± 0.16; as for S32Y, -0.224 ± 0.15; as for S32F, -0.465 ± 0.14.
On the same count and under the same terms, the result for S32A reads -0.222 ± 0.095.
As to S32H, the abundance fitness is -0.483 ± 0.22.
The same measure, in the same setting: as for S32R, the figure is 0.017 ± 0.096; as for S32E, -0.364 ± 0.15; as for E44Y, -0.652 ± 0.15.
On the same count and under the same terms, as for E44R, the figure is -0.507 ± 0.079; as for E44S, -0.089 ± 0.077.
Still for that read-out and setting: as for E44C, the figure is -0.525 ± 0.11; as for E44G, -0.181 ± 0.08; as for E44P, -0.449 ± 0.11.
Turning to E44I, the abundance fitness is -0.359 ± 0.16.
Consider E44V, for which the abundance fitness was -0.603 ± 0.087.
As to E44N, the abundance fitness is -0.065 ± 0.12.
Same read-out and setting: as for E44T, the figure is -0.2 ± 0.1.
Same read-out and setting: the result for E44K reads -0.298 ± 0.11; that for E44L, -0.52 ± 0.085; that for E44M, -0.488 ± 0.11.
Same read-out and setting: the result for E44F reads -0.82 ± 0.13; that for E44H, -0.738 ± 0.15.
Turning to E44Q, the abundance fitness is -0.489 ± 0.16.
As for E44W, the abundance fitness was -0.598 ± 0.11.
On the same count and under the same terms, as for E44A, the figure is -0.411 ± 0.099.
Same read-out and setting: as for R36S, the figure is -0.197 ± 0.091; as for R36W, -0.66 ± 0.11.
On the same count and under the same terms, the result for R36L reads -0.152 ± 0.087; that for R36T, 0.001 ± 0.11; that for R36Q, -0.199 ± 0.12.
Regarding R36Y, the abundance fitness was -0.701 ± 0.18.
For the variant R36K, the abundance fitness was -0.15 ± 0.15.
Still for that read-out and setting: the result for R36F reads -0.607 ± 0.14; that for R36D, 0.001 ± 0.14; that for R36I, -0.217 ± 0.14.
Still for that read-out and setting: as for R36N, the figure is -0.028 ± 0.11; as for R36G, -0.454 ± 0.074.
Turning to R36P, the abundance fitness is -0.535 ± 0.16.
The same measure, in the same setting: the result for R36M reads -0.301 ± 0.12.
The same measure, in the same setting: the result for R36A reads 0.037 ± 0.088; that for R36E, -0.308 ± 0.11.
The same measure, in the same setting: as for R36H, the figure is 0.064 ± 0.15.
With R36V, the abundance fitness is -0.213 ± 0.084.
The same measure, in the same setting: the result for P42Q reads -0.081 ± 0.1.
Still for that read-out and setting: as for P42I, the figure is -0.377 ± 0.09.
In the case of P42R, the abundance fitness was -0.221 ± 0.078.
As to P42Y, the abundance fitness was -0.26 ± 0.083.
Still for that read-out and setting: the result for P42A reads 0.022 ± 0.078; that for P42C, -0.049 ± 0.089; that for P42F, -0.289 ± 0.095.
In the case of P42G, the abundance fitness was -0.007 ± 0.086.
The same measure, in the same setting: as for P42V, the figure is -0.393 ± 0.099; as for P42M, -0.366 ± 0.11; as for P42K, 0.11 ± 0.12.
P42T: the abundance fitness was -0.065 ± 0.074.
Same read-out and setting: as for P42N, the figure is -0.103 ± 0.083.
Turning to P42L, the abundance fitness was -0.324 ± 0.073.
The same measure, in the same setting: as for P42H, the figure is -0.264 ± 0.082; as for P42S, -0.122 ± 0.076; as for P42W, -0.671 ± 0.1.
Same read-out and setting: as for Y37P, the figure is -0.273 ± 0.076; as for Y37W, -0.218 ± 0.12.
The same measure, in the same setting: the result for Y37V reads -0.243 ± 0.091.
For the variant Y37R, the abundance fitness is -0.109 ± 0.075.
The same measure, in the same setting: as for Y37F, the figure is -0.059 ± 0.074; as for Y37E, 0.178 ± 0.15; as for Y37D, 0.176 ± 0.11.
Y37L: the abundance fitness was 0.127 ± 0.07.
On to Y37T, for which the abundance fitness worked out at 0.051 ± 0.074.
Same read-out and setting: the result for Y37N reads 0.226 ± 0.083; that for Y37A, 0.181 ± 0.087; that for Y37H, 0.181 ± 0.08.
Turning to Y37I, the abundance fitness was -0.386 ± 0.1.
Same read-out and setting: as for Y37S, the figure is 0.171 ± 0.071; as for Y37Q, 0.155 ± 0.088.
On the same count and under the same terms, as for Y37K, the figure is 0.058 ± 0.1; as for Y37C, -0.032 ± 0.09; as for R39Q, 0.045 ± 0.1.
The same measure, in the same setting: the result for R39T reads 0.02 ± 0.091.
On to R39D, for which the abundance fitness was 0.257 ± 0.12.
Same read-out and setting: the result for R39V reads -0.092 ± 0.076; that for R39N, 0.363 ± 0.12.
As to R39E, the abundance fitness came to 0.203 ± 0.093.
The same measure, in the same setting: the result for R39M reads -0.155 ± 0.1; that for R39P, -0.246 ± 0.12; that for R39Y, -0.328 ± 0.22.
The same measure, in the same setting: as for R39W, the figure is -0.314 ± 0.084.
The same measure, in the same setting: as for R39C, the figure is -0.375 ± 0.11; as for R39I, 0.162 ± 0.14.
Consider R39A, for which the abundance fitness was -0.103 ± 0.097.
Still for that read-out and setting: as for R39H, the figure is -0.131 ± 0.15; as for R39L, -0.172 ± 0.085.
Still for that read-out and setting: as for R39G, the figure is -0.253 ± 0.072; as for R39S, 0.083 ± 0.086; as for R39F, -0.356 ± 0.11.

In another series the parent is B2. Described as above. The following applies: Homo sapiens.
D42A: the abundance fitness was found to be 0.017 ± 0.042.
Take E1D: the abundance fitness is -0.103 ± 0.075.
Still for that read-out and setting: as for R39T, the figure is -0.111 ± 0.06; as for R39G, -0.36 ± 0.036; as for A58P, -0.001 ± 0.064.
On the same count and under the same terms, as for A58D, the figure is -0.092 ± 0.06; as for P51K, -0.106 ± 0.05.
Still for that read-out and setting: the result for P51R reads -0.069 ± 0.033; that for P51T, -0.528 ± 0.067.
As for W37Y, the abundance fitness is -0.018 ± 0.054.
Same read-out and setting: the result for E31T reads -0.04 ± 0.05; that for P13I, -0.193 ± 0.16.
Same read-out and setting: the result for P13Y reads -0.774 ± 0.1; that for P13D, -0.458 ± 0.095.
In the case of L19T, the abundance fitness is -0.75 ± 0.046.
Still for that read-out and setting: the result for L30Y reads -0.056 ± 0.061; that for L30N, -0.346 ± 0.08.
For the variant L30G, the abundance fitness was -0.398 ± 0.046.
The same measure, in the same setting: as for M14D, the figure is -0.013 ± 0.076; as for Q46L, -0.014 ± 0.031; as for Q46R, -0.016 ± 0.035.
Still for that read-out and setting: the result for S33D reads -0.088 ± 0.08; that for Y9P, -0.663 ± 0.054; that for K3R, -0.065 ± 0.043.
The same measure, in the same setting: as for K3C, the figure is -0.223 ± 0.09; as for K3A, -0.225 ± 0.053; as for Q20E, -0.001 ± 0.059.
Q20G: the abundance fitness was -0.001 ± 0.045.
Still for that read-out and setting: the result for Q20C reads -0.06 ± 0.059.
On to Q20F, for which the abundance fitness was -0.2 ± 0.055.
Same read-out and setting: the result for P36T reads -0.1 ± 0.058; that for V55L, -0.292 ± 0.042; that for E32M, -0.082 ± 0.064.
Same read-out and setting: the result for E32I reads -0.202 ± 0.12; that for N17S, -0.002 ± 0.035; that for M12I, 0.036 ± 0.06.
The same measure, in the same setting: as for M12D, the figure is -0.04 ± 0.054; as for M12N, -0.007 ± 0.067.
Take M12A: the abundance fitness worked out at 0.017 ± 0.038.
Regarding D25M, the abundance fitness was -0.005 ± 0.041.
The same measure, in the same setting: as for D25Q, the figure is -0.013 ± 0.049; as for V6K, -0.023 ± 0.04; as for G24I, -0.799 ± 0.11.
The same measure, in the same setting: the result for G24Y reads -0.193 ± 0.062.
The same measure, in the same setting: as for G24F, the figure is -0.156 ± 0.058.
As to Y27I, the abundance fitness is -0.054 ± 0.073.
Turning to Y27T, the abundance fitness is -0.698 ± 0.057.
Same read-out and setting: the result for N34S reads 0.033 ± 0.043.
Same read-out and setting: as for N34C, the figure is 0.046 ± 0.1.
Take A16L: the abundance fitness is -0.083 ± 0.027.
Still for that read-out and setting: as for K43I, the figure is 0.049 ± 0.066; as for K43M, 0.021 ± 0.056.
In the case of N44E, the abundance fitness is -0.009 ± 0.061.
On the same count and under the same terms, the result for N44L reads -0.023 ± 0.042; that for E47M, -0.156 ± 0.05.
Still for that read-out and setting: as for A40M, the figure is -0.334 ± 0.047.
As to A40E, the abundance fitness was -0.965 ± 0.11.
Same read-out and setting: as for Y49A, the figure is -0.037 ± 0.049; as for G45K, -0.125 ± 0.053.
The same measure, in the same setting: as for G45S, the figure is -0.125 ± 0.04.
On the same count and under the same terms, as for I50L, the figure is -0.043 ± 0.035; as for E57G, 0.01 ± 0.048; as for E57I, -0.133 ± 0.13.
Regarding V5E, the abundance fitness was -0.708 ± 0.079.
Same read-out and setting: the result for V5G reads -0.425 ± 0.039.
The same measure, in the same setting: the result for W38Q reads -0.019 ± 0.05; that for W38M, 0.017 ± 0.037.
Still for that read-out and setting: as for I29N, the figure is -0.698 ± 0.1; as for Y54R, -0.078 ± 0.033.
Take A7D: the abundance fitness was -0.909 ± 0.11.
